Values quoted from earlier work as cited in PMC8509922.
Values joined by “and” are separate entries in the source; they are usually repeats but may differ in a detail not shown here. Identical values can stand only once. Like-named read-outs stand apart in the source and are kept apart here. One block for each substance: values may come before it.

Key:
Acvr1 (Homo sapiens) [1] = target: Acvr1 (Homo sapiens) (UniProt Q04771)
BmpR1 (Homo sapiens) [2] = target: BmpR1 (Homo sapiens) (UniProt P36894)
Acvr1 (Homo sapiens) [3] = target: Acvr1 (Homo sapiens) (UniProt Q04771); remark: listed apart in the source
BmpR1 (Homo sapiens) [4] = target: BmpR1 (Homo sapiens) (UniProt P36894); remark: listed apart in the source

Chain of UniProt Q04771 (Q04771 21-123): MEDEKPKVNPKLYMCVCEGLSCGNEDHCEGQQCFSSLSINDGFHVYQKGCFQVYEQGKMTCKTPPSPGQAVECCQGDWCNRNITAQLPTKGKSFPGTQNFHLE
Chain of UniProt P36894 (P36894 24-152): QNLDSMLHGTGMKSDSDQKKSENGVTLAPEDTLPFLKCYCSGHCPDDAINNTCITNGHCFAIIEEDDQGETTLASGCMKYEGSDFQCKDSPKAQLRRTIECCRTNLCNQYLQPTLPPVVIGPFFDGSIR

Kd (Acvr1 (Homo sapiens) [1]): 0.512 µM and 1.02 µM
Substance: Bmp2/7 heterodimer (from UniProt P12643)

Kd (BmpR1 (Homo sapiens) [2]): 0.0008 µM
Substance: Bmp2 (from UniProt P12643)

Kd (Acvr1 (Homo sapiens) [3]): 0.5 µM
Kd (BmpR1 (Homo sapiens) [4]): 0.056 µM
Substance: Bmp7 (from UniProt P18075)
